The record followed here is patent publication US20250382726A1.

The target in assay [1] is recombinant Cathepsin S protein (UniProt P25774). Briefly: BLI (Octet), captured IgG, Cathepsin S 200 ng/ml, 25 C; Run 1; Affinity to be determined.
Assay [2] concerns the target recombinant HER2 (Acro Biosystems; P/N. H5225) (UniProt P04626). Put plainly: BLI (Octet), IgG captured on anti-human Fc biosensors, HER2 5-0.078 nM in solution, 37 C, 1:1 global fit, mean of duplicates. For orientation: BLI is a label-free optical method that tracks binding on a fibre tip over time.
In assay [3] the target is recombinant Cathepsin S protein (UniProt P25774). Briefly: BLI (Octet), captured IgG, Cathepsin S 200 ng/ml, 25 C; Run 2, second Fsn0503h control row.
The target is the same in assay [4]. Put plainly: BLI (Octet), IgG captured on anti-human biosensors, 200 ng/ml recombinant Cathepsin S, 25 C.
Assay [5] has the same target. Briefly: BLI (Octet), captured IgG, Cathepsin S 200 ng/ml, 25 C; Run 1, Fsn0503h control.
Assay [6] has the same target. Briefly: BLI (Octet), captured IgG, Cathepsin S 200 ng/ml, 25 C; Run 2, Fsn0503h control.
The target is the same in assay [7]. Briefly: BLI (Octet), captured IgG, Cathepsin S 200 ng/ml, 25 C; Run 1, first Fsn0503h control row.

In the case of WT (antibody), in assay [1], the Kd is under 0.001 nM, the koff was under 1e-07 s⁻¹ and the kon is 45100 M⁻¹ s⁻¹.
For the molecule “Wild-Type (antibody having sequence of trastuzumab, transiently expressed in parallel with the variants)”, the Kd in assay [2] is 0.126 nM.

B1: Fsn0503h, humanised anti-Cathepsin S antibody (Fusion Antibodies) (antibody, V domains shown)
VH: EVQLVESGGGLVKPGGSLRLSCAASGFAFSSYDMSWVRQAPGKGLEWVAYITTGGVNTYYPDTVKGRFTISRDNAKNTLYLQMSSLKSEDTAVYYCARHSYFDYWGQGTTVTVSS
VL: DVVMTQSPLSLPVTLGQPASISCRSSQSLVHSNGNTYLHWYLQKPGQSPQLLIYKVSNRFSGVPDRFSGSGSGTDFTLKISRVEAEDVGVYYCSQTTHVPPTFGQGTKLEIK
For B1, the Kd is 5.11 nM in assay [3]; 4.45 nM in assay [4]; 5.47 nM in assay [5]; 4.39 nM in assay [6]; 3.05 nM in assay [7]. The koff is 0.000242 s⁻¹ in assay [3], 0.000144 s⁻¹ in assay [5], 0.000188 s⁻¹ in assay [6] and 0.000121 s⁻¹ in assay [7]. Further, the kon turned out to be 26200 M⁻¹ s⁻¹ in assay [5], 42800 M⁻¹ s⁻¹ in assay [6] and 39600 M⁻¹ s⁻¹ in assay [7].

As usually defined, the Kd is the concentration at which binding is half-saturated. In general, koff refers to a measure of how fast the partners let go of each other. The term kon denotes the second-order rate constant of association.
